In patent CN114989300A (BIO THERA SOLUTIONS LTD, dated 2022):

T1: 人TIGIT (TIGIT-Jurkat细胞表面) (human, UniProt Q495A1 22-244)
T1 construct: whole, on cells
T1 sequence (looked up): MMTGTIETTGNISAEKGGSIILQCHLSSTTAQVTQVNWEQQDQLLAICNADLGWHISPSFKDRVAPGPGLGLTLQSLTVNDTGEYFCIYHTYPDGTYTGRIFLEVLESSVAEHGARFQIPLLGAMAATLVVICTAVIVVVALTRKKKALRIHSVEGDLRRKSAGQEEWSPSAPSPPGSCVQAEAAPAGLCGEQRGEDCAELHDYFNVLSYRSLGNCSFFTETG


Target: T1, 人TIGIT (TIGIT-Jurkat细胞表面)
Test: flow cytometry; blocking of 12.5 nM biotinylated PVR-Fc binding to TIGIT-Jurkat cells

IC50	Binder
0.441 nM	抗体h10D8OF (antibody, human IgG1, kappa, V domains shown, also called 抗TIGIT抗体) VH: QVQLVESGGGVVQPGRSLRLDCKASGFTFSSYGMSWVRQAPGKGLELVATINSNGGSTYYPDSVKGRFTISRDNSKNTLFLQMNSLRAEDTAVYYCARLGTGTLGFAYWGQGTLVTVSS VL: EIVMTQSPATLSLSPGERATLSCKASQDVKTAVSWYQQKPGQAPRLLIYWASTRATGIPARFSGSGSGTDYTLTISSLEPEDFAVYYCQQHYSTPWTFGQGTKVEIKR
0.742 nM	抗体h10D8OFKF (antibody, human IgG1, kappa, V domains shown, fucosylation level about 0 (expressed in alpha-(1,6)-fucosyltransferase knockout CHO cells), also called 抗TIGIT抗体) VH: QVQLVESGGGVVQPGRSLRLDCKASGFTFSSYGMSWVRQAPGKGLELVATINSNGGSTYYPDSVKGRFTISRDNSKNTLFLQMNSLRAEDTAVYYCARLGTGTLGFAYWGQGTLVTVSS VL: EIVMTQSPATLSLSPGERATLSCKASQDVKTAVSWYQQKPGQAPRLLIYWASTRATGIPARFSGSGSGTDYTLTISSLEPEDFAVYYCQQHYSTPWTFGQGTKVEIKR
2.82 nM	参照抗体Tiragolumab (antibody, V domains shown) VH: EVQLQQSGPGLVKPSQTLSLTCAISGDSVSSNSAAWNWIRQSPSRGLEWLGKTYYRFKWYSDYAVSVKGRITINPDTSKNQFSLQLNSVTPEDTAVFYCTRESTTYDLLAGPFDYWGQGTLVTVSS VL: not shown
